Test results as given in patent publication US20240343803A1 (SHANDONG SIMCERE BIOPHARMACEUTICAL, published 2024).
Residue numbers refer to the chain shown, from its start. Values joined by “and” are separate entries in the source; they are usually repeats but may differ in a detail not shown here. Equal values may be shown once. Read-outs that look alike come from different tables or passages of the source.

Key:
[1] = target: T1, human PVRIG-his (AcroBiosystems, Cat NO. PVG-H52H4) (human, UniProt Q6DKI7 41-171, limits assumed); experiment: competition ELISA on coated human PVRIG-his; blocked ligand human PVRL2-mFc
T1 construct: treated as the same protein; also called human PVRIG-His protein; Human PVRIG-His, Acro C227P1-9ARF1-T4
T1 sequence (looked up): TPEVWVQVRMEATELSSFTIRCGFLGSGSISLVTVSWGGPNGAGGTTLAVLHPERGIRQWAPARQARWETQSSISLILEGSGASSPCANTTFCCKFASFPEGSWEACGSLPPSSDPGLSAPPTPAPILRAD
Protocol: The ELISA plate was pre-coated with 100 μL/well of 0.5 μg/mL human PVRIG-his protein (AcroBiosystems, Cat NO. PVG-H52H4). The tested anti-PVRIG antibodies were diluted from the highest concentration of 16 nM (two-fold concentration). The diluted antibodies were mixed with 18 ng/ml human PVRL2-mFc (AcroBiosystems, Cat NO. CD2-H5257) in equal volume, added into the plate (100 μL/well), and incubated with shaking at room temperature for 2.0 hours. […] A HRP substrate, TMB (Thermo, Cat NO. 34029) was added into wells after washing the plate again for color development. After adding a termination solution to terminate the reaction, the absorbance value was read by a microplate reader (MD i3×). An inhibiting curve was drawn with concentration of antibodies as the abscissa and the corresponding OD value as the ordinate. The IC50 value was calculated by using a Four Parameter Logistic Fit (GraphPadPrism9). The smaller the IC50 value, the stronger the ability of the antibodies inhibits the binding between PVRIG and PVRL2. The positive and negative controls are the same as in Example 8.
The methods refer to Example 11. The inhibiting activity of the humanized antibodies was normalized to the corresponding parental antibodies. If the percentage value is higher than 100%, the inhibiting effect of humanized antibodies is better than that of parental antibodies.

[2] = target: T2, human PVRIG on FlpinCHO-PVRIG cells (human, UniProt Q6DKI7 41-326); experiment: FACS, FlpinCHO-PVRIG cells
T2 construct: whole, on cells; also called FlpinCHO-hPVRIG; FlpinCHO-human PVRIG
T2 sequence (looked up): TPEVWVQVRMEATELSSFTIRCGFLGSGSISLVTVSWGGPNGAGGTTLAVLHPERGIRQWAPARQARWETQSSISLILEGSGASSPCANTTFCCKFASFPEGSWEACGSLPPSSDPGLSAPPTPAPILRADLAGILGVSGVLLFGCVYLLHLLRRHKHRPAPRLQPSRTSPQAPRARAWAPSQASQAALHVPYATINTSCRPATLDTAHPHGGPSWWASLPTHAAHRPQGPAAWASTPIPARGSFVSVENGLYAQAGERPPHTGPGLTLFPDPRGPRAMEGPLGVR
Protocol: After discarding the cell culture medium, the cells were rinsed with PBS and digested for 8-10 minutes by adding 1 mL Versene (Gibico, 15040-066). The Ham's F12 (Gibico, 21127-022) complete medium containing 10% FBS was then added to terminate the digestion and acquire cell suspension. After counting with a cell counter (Beckman Coulter, Vi-CELL), an appropriate amount of cell suspension was centrifuged at 350×g to remove the supernatant, washed twice with PBS, stained with Zombie violet (Biolegend, 423114) and incubated at room temperature for 20 minutes. After incubation, the cells were added with staining buffer (2% FBS+PBS) to stop staining, centrifuged at 350×g to remove the supernatant, washed twice and resuspended with staining buffer to a density of 2×10⁶ cells/mL. The cells were plated into a 96-well plate (50 μL of cell suspension per well) for further use. The antibodies were diluted from the highest concentration of 46 nM (two-fold concentration) with staining buffer by 3.3-fold serial dilution. The diluted antibodies were added to the well containing 50 μL of cell suspension. The plate was placed on a microplate shaker at 400 rpm for 1 minute to fully mix the antibodies and cells, and then incubated at 4° C. for 30 minutes. After the incubation, the cells were washed twice with staining buffer (200 μL per well) and centrifuged at 350×g for 5 minutes to discard the supernatant. The PE goat anti-human IgG Fc antibody (ebioscience, 12-4998-82) was diluted 250 times with staining buffer, added into the washed wells (100 μL per well), mixed well, and stained at 4° C. for 30 minutes. After staining, the cells were washed twice with staining buffer, finally resuspended with 200 μL staining buffer and analyzed by flow cytometry (BD, Canto II). The stronger the signal, the stronger the ability of the antibodies binds to PVRIG. An antibody binding curve was drawn with concentration of antibodies as the abscissa and the corresponding Mean Fluorescence Intensity (MFI) as the ordinate. The AUC value of the curve was calculated by using a Four Parameter Logistic Fit (GraphPadPrism9).

[3] = target: T1, human PVRIG-his (AcroBiosystems, Cat …); experiment: competition ELISA on coated human PVRIG-his; blocked ligand human PVRL2-mFc; remark: listed apart in the source
Outline: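 Wells were coated with 0.5 μg/mL human PVRIG-his. Bound ligand was read by HRP/TMB absorbance, and IC50 came from a four-parameter logistic fit of OD against antibody concentration.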

[4] = target: T3, human PVRIG-mFc protein (Acro, PVG-H5253) (human, UniProt Q6DKI7 41-171, limits assumed); experiment: competition FACS; blocked: human PVRIG-mFc binding to CHO-K1-CD112 cells
T3 construct: bought reagent; also called PVRIG-ECD-mFc
T3 sequence (looked up): T1 sequence (looked up)
Outline: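 Antibody dilutions premixed with human PVRIG-mFc (working solution 1 μg/mL, four-fold concentration) for 30 min at 4° C, then incubated with CHO-K1-CD112 cells 30 min at 4° C. Bound PVRIG-mFc detected by PE anti-mouse IgG Fc flow cytometry; IC50 and AUC from four-parameter fit of MFI versus antibody concentration.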

[5] = target: T3, human PVRIG-mFc protein (Acro, …); experiment: competition FACS; blocked: PVRIG-mFc binding to CHO-K1 CD112 cells
Protocol: The Ham's F12 (Gibico, 21127-022) complete medium containing 10% FBS was then added to stop the digestion and acquire cell suspension. After counting with a cell counter (Beckman Coulter, Vi-CELL), an appropriate amount of cell suspension was centrifuged at 350×g to remove the supernatant, washed twice with PBS, stained with Zombie violet (Biolegend, 423114) and incubated at room temperature for 20 minutes. After incubation, the cells were added with staining buffer (2% FBS+PBS) to stop staining, centrifuged at 350×g to remove the supernatant, washed twice and resuspended with staining buffer to a density of 2×10⁶ cells/mL. The cells were plated into a 96-well plate (50 μL of cell suspension per well) for further use. A working solution of human PVRIG-mFc protein (Acro, PVG-H5253) prepared with staining buffer, 1 μg/mL (four-fold concentration), was added into a 96-well plate (50 μL PVRIG-mFc working solution per well). […] The diluted antibodies were added to the well containing 50 μL of PVRIG-mFc. The plate was placed on a microplate shaker at 400 rpm for 1 minute to fully mix the antibodies and PVRIG-mFc proteins, and then incubated at 4° C. for 30 minutes. After the incubation, the cell suspension prepared above (100 μL) was added into the wells, gently mixed with the pipette tip and incubated at 4° C. for 30 minutes. After the incubation, the cells were washed twice with staining buffer (200 μL per well) and centrifuged at 350×g for 5 minutes to discard the supernatant. The PE goat anti-mouse IgG Fc antibody (Biolegend, 405337) was diluted 250 times with staining buffer, added into the washed wells (100 μL per well), mixed well, and stained at 4° C. for 30 minutes. After staining, the cells were washed twice with staining buffer, finally resuspended with 200 μL staining buffer and analyzed by flow cytometry (BD, Canto II). The weaker the fluorescence signal, the stronger the ability of the antibodies blocks the binding of CHO-K1 human CD112 cells to the PVRIG-mFc protein.

[6] = target: T3, human PVRIG-mFc protein (Acro, …); experiment: competition FACS; blocked: human PVRIG-mFc binding to CHO-K1-CD112 cells; remark: listed apart in the source
Outline: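 CHO-K1-CD112 cells stained with Zombie violet were added to the mixture for another 30 min at 4° C, and bound PVRIG-mFc was detected with PE goat anti-mouse IgG Fc (1:250) as mean fluorescence intensity on a BD Canto II. IC50 values were read off the resulting competition curve.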

[7] = target: T4, cynomolgus monkey PVRIG (Novoprotein, Cat NO. C09B) (cynomolgus monkey, UniProt A0A2K5WVV8 41-171); experiment: ELISA, coated cynomolgus monkey PVRIG
T4 construct: bought reagent; also called cynomolgus monkey PVRIG recombinant protein
T4 sequence: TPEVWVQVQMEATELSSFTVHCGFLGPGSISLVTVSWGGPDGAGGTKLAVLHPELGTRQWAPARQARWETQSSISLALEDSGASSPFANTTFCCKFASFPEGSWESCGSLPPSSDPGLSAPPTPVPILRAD
Protocol: (§1) The ELISA plate was pre-coated with 100 μL/well of 0.5 μg/mL human PVRIG-his (AcroBiosystems, Cat NO. PVG-H52H4) or cynomolgus monkey PVRIG (Novoprotein, Cat NO. C09B). […] A HRP substrate, TMB (Thermo, Cat NO. 34029) was added into wells after washing the plate again for color development. After adding a termination solution to terminate the reaction, the absorbance value was read by a microplate reader (MD i3×). An antibody binding curve was drawn with concentration of antibodies as the abscissa and the corresponding OD value as the ordinate. The EC50 value was calculated by using a Four Parameter Logistic Fit (GraphPadPrism9). The smaller the EC50 value, the stronger the ability of the antibodies binds to human or cynomolgus monkey PVRIG. The positive control antibodies are COM701-hIgG1 (Patent No.:US20180244774A1), COM701-hIgG4 (patent No.: US20180244774A1) and SRF813-hIgG1 (Patent No.:US20200040081A1); and the negative control antibodies are anti-HA HcAb-hIgG1 (Chengdu NB Biolab, Cat NO. NBR022), anti-CD38 HcAb-hIgG1 (in-house) and anti-Fluorescein-hIgG1 (in house).

[8] = target: T1, human PVRIG-his (AcroBiosystems, Cat …); experiment: ELISA, coated human PVRIG-his
Protocol: as §1

B1: PVRIG-A118 (VHH)
VHH: QVQLVESGGGLVQAGGSLRLSCAASETYFDLYVMGWYRQAPGKDRELVATITYTGSIKIVDSVKDRFTISRGDAKNTVSLQMSSLKPEDTAVYFCNADPSGLGRKVYWGQGTQVTVSS
notes: tested as VHH-hinge-CH2-CH3 (human IgG1-Fc); not shown: human IgG1 hinge-CH2-CH3
[1]
  IC50 (read off the curve): ~600 pM
[2]
  EC50 (read off the curve): ~0.2 nM
[3]
  IC50 (read off the curve): ~600 pM
[4]
  IC50 (read off the curve): ~1 nM

B2: PVRIG-A50 (VHH)
VHH: EVQLVESGGGLVQPGGSLRLSCAASGFTFSYYDMSWVRQAPGKGLEWVSTINSNGGRTSYVDSVKGRFTISRDNTKNTLYLQMNSLKPEDTAVYYCVEGDPHNFGLENLSLRDFGSWGQGTQVTVSS
notes: as for B1
[1]
  IC50 (read off the curve): ~800 pM and ~1000 pM
[2]
  EC50 (read off the curve): ~0.7 nM
[3]
  IC50 (read off the curve): ~2000 pM
[4]
  IC50 (read off the curve): ~0.7 nM

B3: PVRIG-A50-H1b (VHH)
VHH: B2 VHH with N54D, T75S, K87R, P88A, N108S, Q122M
notes: humanized VHH; also called A50.VH1b
[5]
  IC50 (read off the curve): ~1 nM

B4: COM701-hIgG4 (antibody, V domains shown)
VH: QVQLVQSGAEVKKPGASVKVSCKASGYTFTDYNINWVRQAPGQGLEWMGYIYPYIGGSGYAQKFQGRVTMTRDTSTSTVYMELSSLRSEDTAVYYCAREDKTARNAMDYWGQGTLVTVSS
VL: DIQMTQSPSSLSASVGDRVTITCRVSENIYSNLAWYQQKPGKAPKLLIYEATNLAEGVPSRFSGSGSGTDFTLTISSLQPEDFATYYCQHFWGTPYTFGQGTKLEIK
notes: anti-PVRIG positive control
[6]
  IC50 (read off the curve): ~0.9 nM
[7]
  EC50 (read off the curve): ~100 pM
[5]
  IC50 (read off the curve): ~0.7 nM
[3]
  IC50 (read off the curve): ~800 pM
[8]
  EC50 (read off the curve): ~300 pM
[4]
  IC50 (read off the curve): ~0.8 nM
